In paper PMC7719796, “Structural Insights on Tiny Peptide Nucleic Acid (PNA) Analogues of miRNA-34a: An in silico and Experimental Integrated Approach” (Frontiers in Chemistry, 2020):

Tested on: Kelly neuroblastoma cells
Test: PNA cellular uptake assay (fluorescence of cell lysate)
Assay type: cell-based, Human
Details: 0.1 μM in Opti-MEM, no transfecting agent, 24 h incubation (text; method: 6 h at 37°C, then 48 h), fluorescence of cell lysate and media 485/535 nm, 3 biological repeats and 4 technical repeats
Description: Cellular uptake of the described tiny PNA sequence was studied in vitro on Human Kelly neuroblastoma cell line, without the use of any transfection agents, and compared to previously reported results from our group (Piacenti et al., [2019]). In particular, the PNA oligomers were provided with short peptide carriers at both termini consisting of a trilysines segment at the C-terminus and one lysine at the N-terminus (FITC-PNA2) or Cys-Lys dipeptide at the N-terminus (FITC-PNA3) (Table 1), that was previously reported by Fabani et al. ([2010]) to promote cellular uptake for PNA single strands. Kelly cells were incubated for 24 h with FITC-PNA2 or FITC-PNA3 sequences individually, at minimal 0.1 μM concentration in optiMEM, without the use of any transfecting agent and using a protocol for miRNA mimics delivery, which was previously optimized (Curtin, [2018]). Both peptide carriers were able to provide internalization of PNA sequences albeit to a different extent (Figure 9A); uptake was slightly higher than 3% for FITC-PNA2 and almost 5% for FITC-PNA3.
Kelly cells were seeded in 6-well plates in duplicates at 0.5 × 10^6 density. […] The fluorescence of the cell lysate and of the media was read in a dual beam plate reader, at 485/535 nm.

Substance | Cellular uptake (internalization)
FITC- Ahx -K- tggcagtg—KKK-NH2 [FITC-PNA2, PNA1 with K at N-terminus and KKK at C-terminus, Ahx linker and FITC fluorescent tag] | higher than 3%
FITC- Ahx -CK - tggcagtg—KKK- NH2 [FITC-PNA3, PNA1 with Cys-Lys at N-terminus and KKK at C-terminus, FITC-Ahx; reported in previous work, used for comparison] | ~5%
